In patent publication US20220251194A1 (Merck Sharp & Dohme, published 2022):
One block for each binder: values may come before it.

Assays:
[1] = biological target: T1, human PD1 on PathHunter U2OS dimer cells (human, UniProt Q15116 25-288); assay: PathHunter dimerization assay, U2OS cells co-expressing human PD1 and LAG3; the signal needs both targets to be bound on the same cell
T1 construct: whole, on cells; On Human PD1/LAG3 dimer cell Clone #9 (Lot 56AUA) and Human PD1/TIGIT dimer cell Clone #5 (Lot 14BAU); also called hPD1; not shown: beta-galactosidase fragment (ProLink or Enzyme Acceptor)

[2] = biological target: T2, Human PD1 (50AFR), [VEGF leader]-Sino-Bio-PD-1_H-[His9G] (human, UniProt Q15116 25-167); assay: SPR (Biacore T200 or 4000), antibody captured via anti-human Fc, antigen as analyte
T2 construct: Expressed with a VEGF leader; also called PD-1-His (50AFR)
Description: (§1) Binding affinities were measured using a Biacore T200 or Biacore 4000 biosensor (GE Healthcare, Chicago, Ill.). The following running buffer, 10 mM HEPES, 150 mM NaCl, 0.05% v/v Surfactant P20, 3 mM EDTA (GE Healthcare, BR100669, Chicago, Ill.), was used for immobilization, sample dilution and data collection. All experiments were performed at 25° C. Antigen binding to antibodies captured via an anti-human Fc antibody was measured using a Series S Sensor Chip CM5 (GE Healthcare, 29149603, Chicago, Ill.). An anti-human Fc antibody was immobilized on all surfaces of the chip according to the instructions in the Human Antibody Capture Kit (GE Healthcare, BR100839, Chicago, Ill.) and the Amine Coupling Kit (GE Healthcare, BR100633, Chicago, Ill.). […] After the antigen injections the dissociation of the interaction was monitored for 15 minutes. Between binding cycles the antibody and antigen were removed from the chip with a 30 second injection of 3 M MgCl₂.
(§2) The data were processed and fit using Biacore T200 Evaluation Software version 2.0 or Biacore 4000 Evaluation Software version 1.1 (GE Healthcare, Chicago, Ill.). The data were “double referenced” by subtracting the response from a negative control flowcell and subtracting the response from a buffer injection or the average response from two buffer injections. The data were then fit with the ‘1:1 Binding’ model to determine the association rate constant, kₐ (M⁻¹s⁻¹, where “M” equals molar and “s” equals seconds) and the dissociation rate constant, kd (s⁻¹). These rate constants were used to calculate the equilibrium dissociation constant, KD (M)=[…].

human LAG-3 (60AXE) = biological target: T3, human LAG-3 (60AXE) (human, UniProt P18627 23-450, limits assumed); assay: as above
T3 construct: Lot 60AXE is not described further
T3 sequence (looked up): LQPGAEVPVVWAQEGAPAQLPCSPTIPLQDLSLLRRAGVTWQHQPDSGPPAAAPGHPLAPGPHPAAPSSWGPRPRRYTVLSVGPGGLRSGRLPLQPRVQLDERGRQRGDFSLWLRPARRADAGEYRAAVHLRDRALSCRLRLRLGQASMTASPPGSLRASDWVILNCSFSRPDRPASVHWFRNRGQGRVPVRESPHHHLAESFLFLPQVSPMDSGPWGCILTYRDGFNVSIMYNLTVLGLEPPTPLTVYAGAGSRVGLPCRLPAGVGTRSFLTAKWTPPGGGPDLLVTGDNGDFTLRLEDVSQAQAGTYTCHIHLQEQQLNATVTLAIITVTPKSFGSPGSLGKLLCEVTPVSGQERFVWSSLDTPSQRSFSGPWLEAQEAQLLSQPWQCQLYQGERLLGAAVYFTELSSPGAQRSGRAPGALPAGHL
Description: as §1, §2

human TIGIT (94AGV) = biological target: T4, human TIGIT (94AGV) (human, UniProt Q495A1 22-141, limits assumed); assay: as above
T4 construct: Lot 94AGV is not described further
T4 sequence (looked up): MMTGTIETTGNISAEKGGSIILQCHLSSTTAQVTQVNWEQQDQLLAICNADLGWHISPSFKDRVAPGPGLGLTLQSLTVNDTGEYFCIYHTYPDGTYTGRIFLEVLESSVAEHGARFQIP
Description: as §1, §2

[3] = biological target: T5, recombinant human or cyno PD-1 (immobilized onto CM5 chip, Example 1) (human or cyno ( which was …, UniProt Q15116 25-167, limits assumed)); assay: SPR (Biacore T200), PD-1 immobilized on CM5 chip, Fab as analyte; lower end of the printed range 2.80-2.90
T5 construct: also called antigen
Description: (§3) Immobilization of recombinant human or cyno PD-1 onto CM5 chip: A CM5 sensor chip was activated in FC2 by 7-min. injection (10 μl/min.) of freshly prepared 1:1 50 mM NHS: 200 mM EDC. PD-1 at a concentration of 0.2 μg/ml in 10 mM sodium acetate buffer pH 5.0 was injected onto the activated chip at 5 μl/min. (HBS-EP running buffer: 10 mM HEPES, 150 mM NaCl, 3.4 mM EDTA, 0.005% surfactant P20, pH 7.4) for 120 seconds. The remaining active coupling sites were blocked with 7 min. injection of 1M ethanolamine at 10 μl/min.
(§4) Binding kinetics measurement: Various concentrations of the Fabs were injected with a flow rate of 30 μl/min for 180 seconds(s) during the association phase. The dissociation of bound antibody was monitored by flowing HBS-EP buffer over the chip surface for 600 seconds. At the end of each cycle, the sensor surfaces were regenerated by injecting regeneration buffer (10 mM glycine buffer with pH 1.7) for 180 seconds. After sensograms were corrected for signals from a reference flow, kinetics were calculated with BIACORE T 200 evaluation software ver.1.0 (Biacore, GE, USA).

[4] = biological target: T5, recombinant human or cyno PD-1 …; assay: SPR (Biacore), Fab against PD-1
Description: as §3, §4

T5 sequence (Q15116 25-167 limits assumed): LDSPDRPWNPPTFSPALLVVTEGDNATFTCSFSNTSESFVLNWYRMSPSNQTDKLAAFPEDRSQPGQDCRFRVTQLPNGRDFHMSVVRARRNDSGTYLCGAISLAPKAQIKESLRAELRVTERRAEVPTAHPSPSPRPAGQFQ
T1 sequence (Q15116 25-288): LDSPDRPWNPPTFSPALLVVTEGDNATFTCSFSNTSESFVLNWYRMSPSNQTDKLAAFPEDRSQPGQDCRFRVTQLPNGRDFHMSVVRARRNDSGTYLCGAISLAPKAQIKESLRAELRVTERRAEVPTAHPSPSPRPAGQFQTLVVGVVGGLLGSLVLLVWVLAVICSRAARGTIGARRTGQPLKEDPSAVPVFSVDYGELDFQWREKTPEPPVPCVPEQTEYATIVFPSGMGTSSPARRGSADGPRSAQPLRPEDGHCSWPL
T2 sequence (Q15116 25-167): as the sequence (Q15116 25-167 limits assumed) above

B2: anti-PD-1/LAG-3/TIGIT trispecific antibody (TsAbY31W) (Lot 30BCM) (other)
heavy 1: EVQLVQSGAEVKKPGASVKVSCKASGYTFTSYYLYWVRQAPGQGLEWIGGVNPSNAGTNFNEKFKSRVTLTVDTSISTAYMELSRLRSDDTAVYYCTRRLSHYDGGFDYWGQGTTVTVSSASTKGPSVFPLAPSSKSTSGGTAALGCEVTDYFPEPVTVSWNSGALTSGVHTFPAVLESSGLYSLLSVVTVPSSSLGTQTYICNVNHKPSNTKVDKKVEPKSCDKTHTCPPCPAPEAAGGPSVFLFPPKPKDTLMISRTPEVTCVVVSVSHEDPEVKFNWYVDGVEVHNAKTKPREEQYNSTYRVVSVLTVLHQDWLNGKEYKCKVSNKALPAPIEKTISKAKGQPREPQVYVYPPSRDELTKNQVSLTCLVKGFYPSDIAVEWESNGQPENNYKTTPPVLDSDGSFALVSKLTVDKSRWQQGNVFSCSVMHEALHNHYTQKSLSLSPGGGGSGGGSGGGSGGGSDIQMTQSPSSLSASVGDRVTITCRASEHIYSYLSWYQQKPGKVPKLLIYNAKTLAEGVPSRFSGSGSGTDFTLTISSLQPEDVATYYCQHHFGSPLTFGQGTRLEIKGGSSRSSSSGGGGSGGGGSGSEVQLVQSGAEVKKPGSSVKVSCKASGYTFSSYVMHWVRQAPGQGLEWIGYIDPYNDGAKYAQKFQGRVTLTSDKSTSTAYMELSSLRSEDTAVYYCARGGPYGWYFDVWGQGTTVTVSS
light 1: DIVMTQTPLSLSVTPGQPASISCRASKSVSTSGFSYLHWYLQKPGQPPQLLIFLSKYRSSGVPDRFSGSGSGTDFTLKISRVEAEDVGVYYCSQAYHLPLTFGQGTKLEIKRTVAAPSVFIFPPSDERLKSGTASVVCLLNNFYPREAKVQWKVDNALQSGNSQESVTEQDSKDSTYSLSSRLTLSKADYEKHKVYACEVTHQGLSSPVTKSFNRGEC
heavy 2: QMQLVQSGPEVKKPGTSVKVSCKASGYTFTDYNVDWVRQARGQRLEWIGDINPNDGGTIYAQKFQERVTITVDKSTSTAYMELSSLRSEDTAVYYCARNYRWFGAMDHWGQGTTVTVSSASTKGPSVFPLAPSSKSTSGGTAALGCLVKDYFPEPVTVSWNSGALTSGVHTFPAVLQSSGLYKLSSVVTVPSSSLGTQTYICNVNHKPSNTKVDKKVEPKSCDKTHTCPPCPAPEAAGGPSVFLFPPKPKDTLMISRTPEVTCVVVSVSHEDPEVKFNWYVDGVEVHNAKTKPREEQYNSTYRVVSVLTVLHQDWLNGKEYKCKVSNKALPAPIEKTISKAKGQPREPQVYVLPPSRDELTKNQVSLLCLVKGFYPSDIAVEWESNGQPENNYLTWPPVLDSDGSFFLYSKLTVDKSRWQQGNVFSCSVMHEALHNHYTQKSLSLSPGGGGSGGGSGGGSGGGSDIQMTQSPSSLSASVGDRVTITCRASEHIYSYLSWYQQKPGKVPKLLIYNAKTLAEGVPSRFSGSGSGTDFTLTISSLQPEDVATYYCQHHFGSPLTFGQGTRLEIKGGSSRSSSSGGGGSGGGGSGSEVQLVQSGAEVKKPGSSVKVSCKASGYTFSSYVMHWVRQAPGQGLEWIGYIDPYNDGAKYAQKFQGRVTLTSDKSTSTAYMELSSLRSEDTAVYYCARGGPYGWYFDVWGQGTTVTVSS
light 2: DIVMTQTPLSLSVTPGQPASISCKASQSLDWEGDSDMNWYLQKPGQPPQLLIYGASNLESGVPDRFSGSGSGTDFTLKISRVEAEDVGVYYCQQSTEDPRTFGGGTKVEIKRTVAAPSVFIFPPSDEELKSGTATVVCLLNNFYPREAKVQWKVDNALQSGNSQESVTEQDSKDSTYSLSSYLELSKADYEKHKVYACEVTHQGLSSPVTKSFNRGEC
notes: Trispecific heterodimeric IgG1 / kappa; also called Y31W mutant; Hz x Hu [PD-1]; [TIGIT]; [LAG3]; TsAb (Y31W)
Kd [2]: 0.289 nM
Kd (human LAG-3 (60AXE)): 0.023 nM
Kd (human TIGIT (94AGV)): 1.09 nM

B3: Fab001 (humanized 08A Fab with S61N glycosylation site correction) (Fab, V domains shown)
VH: EVQLVQSGAEVKKPGASVKVSCKASGYTFTSYYLYWVRQAPGQGLEWIGGVNPSNGGTNFNEKFKSRVTLTVDTSISTAYMELSRLRSDDTAVYYCTRRDSNYDGGFDYWGQGTTVTVSS
VL: DIVMTQTPLSLSVTPGQPASISCRASKSVSTSGFSYLHWYLQKPGQPPQLLIFLASNLESGVPDRFSGSGSGTDFTLKISRVEAEDVGVYYCQHSWELPLTFGQGTKLEIKR
notes: Fab with IgG4 CH1 and kappa light chain
Kd [3]: 0.28 to 0.29 nM

Next, values leading:

binding result [1]: no binding
B1: Humanized x [LAG3_H][TIGIT_H] BsAb (22D2 VH6 C-term 31C6 scFv VL-VH / VL3 Y31W) IgG1 L234A L235A D265S / Kappa (Lot 80BCK) (bispecific antibody)
heavy: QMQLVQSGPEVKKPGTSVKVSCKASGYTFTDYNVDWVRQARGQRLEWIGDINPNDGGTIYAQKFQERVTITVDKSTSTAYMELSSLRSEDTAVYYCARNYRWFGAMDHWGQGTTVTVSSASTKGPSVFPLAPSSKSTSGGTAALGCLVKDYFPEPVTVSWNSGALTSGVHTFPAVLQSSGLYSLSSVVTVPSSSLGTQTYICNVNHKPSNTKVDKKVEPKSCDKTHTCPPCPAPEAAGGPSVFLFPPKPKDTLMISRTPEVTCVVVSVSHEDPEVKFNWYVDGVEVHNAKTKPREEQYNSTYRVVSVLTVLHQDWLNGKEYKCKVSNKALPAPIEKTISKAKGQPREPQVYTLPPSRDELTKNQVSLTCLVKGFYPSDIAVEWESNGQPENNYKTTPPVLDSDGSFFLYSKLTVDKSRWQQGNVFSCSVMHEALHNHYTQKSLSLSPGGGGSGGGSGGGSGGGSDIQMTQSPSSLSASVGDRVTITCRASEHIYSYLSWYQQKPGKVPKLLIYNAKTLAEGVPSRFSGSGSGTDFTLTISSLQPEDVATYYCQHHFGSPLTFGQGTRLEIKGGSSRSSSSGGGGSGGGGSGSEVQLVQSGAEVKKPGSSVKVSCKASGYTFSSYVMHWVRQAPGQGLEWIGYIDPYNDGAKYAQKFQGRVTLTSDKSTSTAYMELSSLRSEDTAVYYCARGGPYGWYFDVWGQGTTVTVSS
light: DIVMTQTPLSLSVTPGQPASISCKASQSLDWEGDSDMNWYLQKPGQPPQLLIYGASNLESGVPDRFSGSGSGTDFTLKISRVEAEDVGVYYCQQSTEDPRTFGGGTKVEIKRTVAAPSVFIFPPSDEQLKSGTASVVCLLNNFYPREAKVQWKVDNALQSGNSQESVTEQDSKDSTYSLSSTLTLSKADYEKHKVYACEVTHQGLSSPVTKSFNRGEC
notes: Anti-LAG3 IgG1 with an anti-TIGIT scFv at the C-terminus of the heavy chain; also called 80BCK (control); Hz x Hu [LAG3]; [TIGIT]; BsAb (Y31W)

fold improvement in KD over 08A [4]: 2 fold
B4: Fab 004 (Fab, V domains shown)
VH: EVQLVQSGAEVKKPGASVKVSCKASGYTFTSYYLYWVRQAPGQGLEWIGGVNPSNGGTNFNEKFKSRVTLTVDTSISTAYMELSRLRSDDTAVYYCTRRLSHYDGGFDYWGQGTTVTVSS
VL: DIVMTQTPLSLSVTPGQPASISCRASKSVSTSGFSYLHWYLQKPGQPPQLLIFLASNLESGVPDRFSGSGSGTDFTLKISRVEAEDVGVYYCQHSWELPLTFGQGTKLEIKR
notes: also called 3G9; H3G9
